Results taken from US20250361299A1 (ZHEJIANG SHIMAI PHARMACEUTICAL, published 2025).

Target: T1, Recombinant human EGFR (human, UniProt P00533 25-645)
T1 construct: Bought protein coated on ELISA plates (100 ng per well); also called human antigen EGFR
Test: ELISA on coated human EGFR, antibody not treated with uPA
Procedure: To determine the binding affinity of proBiTEs to CD3 and EGFR, ELISA was performed according to standard protocols. Briefly, human antigen CD3 and EGFR were coated on Corning EIA/RIA high-binding 96-well plates (Corning Inc.) at 100 ng per well overnight at 4° C. and blocked with 3% nonfat milk in PBS (pH7.4). For cleavage with urokinase (uPA), 30 μg antibodies were mixed with or without 0.3 μg recombinant human uPA (50 μg/mL) (Sino Biological) in PBS (pH7.4) and incubated at room temperature for 4 hour. Then the mixture with or without uPA was diluted in a fivefold gradient and incubated at room temperature for 2 h. The plates were washed with PBS containing 1% nonfat milk. Bound antibodies were detected by HRP-conjugated streptavidin (Sigma). The assay was developed at room temperature with TMB substrate (Solarbio) and monitored at 450 nm with a microplate reader. The half-maximal binding (EC₅₀) was calculated by fitting the data to the Langmuir adsorption isotherm.

binding result	Binder
binds	1.6.1M-Pa proBiTE (bispecific antibody, Intact, not treated with uPA; As 1.6.1M proBiTE but with a panitumumab anti-EGFR scFv in the light chain) heavy: QDGNEEMGGGSQDGNEEMGGIGGGSGGGGSGLSGRSDNHGGGGSEVQLVESGGGLVQPGGSLRLSCAASGFTFNTYAMNWVRQAPGKGLEWVARIRSKYNNYATYYADSVKGRFTISRDDSKNTLYLQMNSLRAEDTAVYYCARHGNFGSSYVSYFAYWGQGTTVTVSSASTKGPSVFPLAPSSKSTSGGTAALGCLVKDYFPEPVTVSWNSGALTSGVHTFPAVLQSSGLYSLSSVVTVPSSSLGTQTYICNVNHKPSNTKVDKKVEPKSCPPCPAPEAAGAPSVFLFPPKPKDTLMISRTPEVTCVVVDVSHEDPEVKFNWYVDGVEVHNAKTKPREEQYNSTYRVVSVLTVLHQDWLNGKEYKCKVSNKALPAPIEKTISKAKGQPREPQVYTLPPSRDELTKNQVSLLCLVKGFYPSDIAVEWESNGQPENNYKTTPPVLDSDGSFFLHSKLTVDKSRWQQGNVFSCSVMHEALHNHYTQKSLSLSPGK light: QVQLQESGPGLVKPSETLSLTCTVSGGSVSSGDYYWTWIRQSPGKGLEWIGHIYYSGNTNYNPSLKSRLTISIDTSKTQFSLKLSSVTAADTAIYYCVRDRVTGAFDIWGQGTMVTVSSGGGGSGGGGSGGGGSGGGGSDIQMTQSPSSLSASVGDRVTITCQASQDISNYLNWYQQKPGKAPKLLIYDASNLETGVPSRFSGSGSGTDFTFTISSLQPEDIATYFCQHFDHLPLAFGGGTKVEIKGGGGSGGGGSGGGGSGGGGSEIVVTQSPATLSVSPGERATLSCRSSTGAVTTSNYANWVQQKPGQAPRGLIGGANKRAPGVPARFSGSLSGDEATLTISSLQSEDFAVYYCALWYSNLWVFGQGTKLEIKRTVAAPSVFIFPPSDEQLKSGTASVVCLLNNFYPREAKVQWKVDNALQSGNSQESVTEQDSKDSTYSLSSTLTLSKADYEKHKVYACEVTHQGLSSPVTKSFNRGECPPCPAPEAAGAPSVFLFPPKPKDTLMISRTPEVTCVVVDVSHEDPEVKFNWYVDGVEVHNAKTKPREEQYNSTYRVVSVLTVLHQDWLNGKEYKCKVSNKALPAPIEKTISKAKGQPREPQVYTLPPSRDELTKNQVSLLCLVKGFYPSDIAVEWESNGQPENNYKTTPPVLDSDGSFFLHSKLTVDKSRWQQGNVFSCSVMHEALHNHYTQKSLSLSPGK
binds	1.6.1M-2-1-Pa proBiTE (bispecific antibody, Intact, not treated with uPA) heavy: QDGNEEMGGGSQDGNEEMGGIGGGSGGGGSGLSGRSDNHGGLSGRSDNHGGSEVQLVESGGGLVQPGGSLRLSCAASGFTFNTYAMNWVRQAPGKGLEWVARIRSKYNNYATYYADSVKGRFTISRDDSKNTLYLQMNSLRAEDTAVYYCARHGNFGSSYVSYFAYWGQGTTVTVSSASTKGPSVFPLAPSSKSTSGGTAALGCLVKDYFPEPVTVSWNSGALTSGVHTFPAVLQSSGLYSLSSVVTVPSSSLGTQTYICNVNHKPSNTKVDKKVEPKSCPPCPAPEAAGAPSVFLFPPKPKDTLMISRTPEVTCVVVDVSHEDPEVKFNWYVDGVEVHNAKTKPREEQYNSTYRVVSVLTVLHQDWLNGKEYKCKVSNKALPAPIEKTISKAKGQPREPQVYTLPPSRDELTKNQVSLLCLVKGFYPSDIAVEWESNGQPENNYKTTPPVLDSDGSFFLHSKLTVDKSRWQQGNVFSCSVMHEALHNHYTQKSLSLSPGK light: QVQLQESGPGLVKPSETLSLTCTVSGGSVSSGDYYWTWIRQSPGKGLEWIGHIYYSGNTNYNPSLKSRLTISIDTSKTQFSLKLSSVTAADTAIYYCVRDRVTGAFDIWGQGTMVTVSSGGGGSGGGGSGGGGSGGGGSDIQMTQSPSSLSASVGDRVTITCQASQDISNYLNWYQQKPGKAPKLLIYDASNLETGVPSRFSGSGSGTDFTFTISSLQPEDIATYFCQHFDHLPLAFGGGTKVEIKGGGGSGGGGSGGGGSGGGGSEIVVTQSPATLSVSPGERATLSCRSSTGAVTTSNYANWVQQKPGQAPRGLIGGANKRAPGVPARFSGSLSGDEATLTISSLQSEDFAVYYCALWYSNLWVFGQGTKLEIKRTVAAPSVFIFPPSDEQLKSGTASVVCLLNNFYPREAKVQWKVDNALQSGNSQESVTEQDSKDSTYSLSSTLTLSKADYEKHKVYACEVTHQGLSSPVTKSFNRGECPPCPAPEAAGAPSVFLFPPKPKDTLMISRTPEVTCVVVDVSHEDPEVKFNWYVDGVEVHNAKTKPREEQYNSTYRVVSVLTVLHQDWLNGKEYKCKVSNKALPAPIEKTISKAKGQPREPQVYTLPPSRDELTKNQVSLLCLVKGFYPSDIAVEWESNGQPENNYKTTPPVLDSDGSFFLHSKLTVDKSRWQQGNVFSCSVMHEALHNHYTQKSLSLSPGK
